Measured values from patent US20100184651A1, “TARGETED FUSION PROTEINS FOR CANCER THERAPY” (Dabur Pharma Limited, priority 2005, published 2010).

Tests used:
[1] = target: T1, VPAC 1 receptors expressed on A549 cells (Homo sapiens, UniProt P32241); test: Immunocytochemical staining for cell surface receptors on A549 cells; type: binding
T1 construct: the receptors were overexpressed in the A549 cell line; endogenous in cells; host or cells: A549 human lung carcinoma cells (acetone-fixed on slides)
T1 sequence (P32241 31-457): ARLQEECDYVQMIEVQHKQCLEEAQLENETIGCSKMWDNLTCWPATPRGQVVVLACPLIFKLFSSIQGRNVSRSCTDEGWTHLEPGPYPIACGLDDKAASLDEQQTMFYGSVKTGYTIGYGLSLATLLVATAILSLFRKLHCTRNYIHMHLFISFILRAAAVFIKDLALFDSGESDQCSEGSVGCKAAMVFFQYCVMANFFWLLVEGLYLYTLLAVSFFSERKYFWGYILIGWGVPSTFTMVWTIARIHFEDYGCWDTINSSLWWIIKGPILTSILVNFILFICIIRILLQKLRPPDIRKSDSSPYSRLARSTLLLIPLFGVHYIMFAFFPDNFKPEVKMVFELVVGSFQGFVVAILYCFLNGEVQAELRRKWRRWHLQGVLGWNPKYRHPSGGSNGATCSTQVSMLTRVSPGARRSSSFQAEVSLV
Procedure: Similarly, when, the cells were treated with fusion protein and immuno-stained with anti-BID. […] A similar observation was made when A549 cells were pre-treated with VIP antagonist, VIP (10-28) followed by fusion protein and immunostaining with anti-BID (FIG. 15e).
Cultured (A549 human lung carcinoma) cells were detached with trypsin/EDTA and pelleted by low-speed centrifugation. The cells were resuspended in PBS. Cell suspensions were coated onto poly-L-lysine coated glass slides, dried and then fixed for 10 min in acetone at −20° C. After drying for 2 h, slides were rinsed in PBS and then treated for 5 min with water/H2O2 in order to block endogenous peroxidase. Slides were again rinsed again in PBS and treated with normal rabbit and goat serum to block background staining. Slides were then incubated with antagonist, VIP(10-28) and/or fusion protein for 1 hr each. Slides were again washed with PBS and incubated with rabbit-anti-BID antibody (dilution 1:1000) or goat anti-VPAC 1 antibody (dilution 1:1000) for 1 h. Slides were again washed in PBS and incubated with […] IgG peroxidase labelled antibodies for anti-BID and anti-VPAC 1 primary antibodies respectively, for 1 h followed by addition of the 3,3′-diaminobenzidine-tetrachloride (DAB) substrate and hydrogen peroxide in PBS. […]

[2] = target: T2, recombinant human cathepsin D (Homo sapiens, UniProt P07339); test: Cleavage at the linker site with recombinant human cathepsin D, followed by LC-MS; type: biochemical; conditions: cathepsin D at a ratio of ~400:1 (w/w), pH 3.5, 37° C.
T2 construct: purchased R&D Systems, Abingdon, UK
T2 sequence (P07339 65-412): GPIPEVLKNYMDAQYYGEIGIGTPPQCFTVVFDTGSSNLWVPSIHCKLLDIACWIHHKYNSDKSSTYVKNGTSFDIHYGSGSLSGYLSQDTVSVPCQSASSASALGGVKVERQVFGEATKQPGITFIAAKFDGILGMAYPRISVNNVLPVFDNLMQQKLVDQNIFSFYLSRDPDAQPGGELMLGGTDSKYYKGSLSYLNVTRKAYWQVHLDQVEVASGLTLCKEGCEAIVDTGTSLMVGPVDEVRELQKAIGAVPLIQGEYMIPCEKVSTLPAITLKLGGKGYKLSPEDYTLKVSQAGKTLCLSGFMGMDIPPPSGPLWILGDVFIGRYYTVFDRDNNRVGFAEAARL
Procedure: To evaluate the role of the linker used we carried out an in vitro digestion of the protein with cathepsin D at a ratio of ˜400:1 (w/w) and followed the cleavage by mass spectrometry as a function of time (FIG. 16). The first cleavage occurred at the linker by around 30 minutes of treatment with the protease, giving two peptides of 3914.4 Da (FIGS. 17a) and 4477 Da (FIG. 17b), which corresponded to M (1-34) L (expected mass 3915.5 Da) and L (35-71) H (expected mass 4475 Da) peptides respectively although the majority of the protein was still intact (FIG. 17c), which justified our design of the protein. Subsequently, the protein was cleaved at other sites as mapped by mass spectrometry till 2 H of digestion (FIGS. 18a-e, 19).
LC/MS analyses were carried out using a Waters 2695 high-perfomance liquid chromatography (HPLC) system (Milford, USA) and Micromass Quattro Micro mass spectrometer (Micromass, UK) using a ZORBAX Eclipse XDB-C18 (4.6×150 mm, 5 μM) column. Mobile phase solvents were 0.1% HCOOH in Milli Q Water (A) and 0.1% HCOOH in Acetonitrile (B). Fusion protein was eluted using a linear gradient program: 0 min 100% A; 60 min 100% B; 60-75 min 100% A, at a constant flow rate of 1.2 mL min^−1, and a volume of 50 μl was directed to the detector of the mass spectrometer. […]

[3] = system: normal murine cell line, NIH3T3; test: MTT cytotoxicity assay, NIH3T3; type: cell-based, mouse; conditions: NIH3T3, 24 h treatment
Procedure: Subsequently, cytotoxicity of this protein was determined on cell lines over expressing the VIP receptor like colon carcinoma cell line, HT29 and non small cell lung carcinoma cell line, A549 and compared with a normal murine cell line, NIH3T3, by a quantitative MTT assay. […] Different sensitivities of the two cell lines may be attributed to the differential expression of the VPAC1 receptors and the inherent sensitivity of the cell lines.
Cells were seeded in 96-well microplates, followed by the addition of various concentrations of the fusion protein. After a 24-hour incubation, the MTT assay was performed according to the method of Mosmann [Mosmann T, J Immunol. Methods, 1983, 55-63]. Serial dilutions of chemotherapeutic agents prepared by the Multiplication method were placed in a 96-well microplate. Since the cell lines employed in the present study had different proliferation rates, the number of cultured cells was adjusted to a density that allowed the untreated control cells to grow exponentially. […] Then 200 μl of DMSO was added, and the absorbance was determined at a wavelength of 540 nm using an ELISA reader. Results were expressed as the percent survival of the control experiments in which the cells were not exposed to any protein. […]

A549 cells = test: Mitochondrial membrane potential analysis with JC-1 dye; type: cell-based, human; conditions: dose dependent
Procedure: After having determined the role of the targeting VIP peptide and the cathepsin cleavable linker we investigated the role of the apoptotic BID peptide. In this regard, we monitored the mitochondrial membrane potential of the cells on treatment with fusion protein using JC-1 dye.
Aliquots of cell suspensions were incubated with 4 μM of JC-1, a specific MMP dependent fluorescence dye [Hortelano S. et al., FEBS Lett, 1997, 411: 77-82], for 30 min at 37° C. and washed once in PBS. Mitochondrial depolarization was qualitatively estimated by fluorescence microscopy with a long-pass filter. […] JC-1 forms aggregates in cells with a high red fluorescence (585 nm) indicating a normal MMP. MMP loss results in a reduction in red fluorescence with a concurrent gain in green fluorescence (530 nm) as the dye shifts from aggregates to monomeric state. Therefore, retention of the dye in the cells can be monitored through the increase in green fluorescence. The fluorescence was measures using Varioskan spectrofluorimeter (Thermo Electron Corporation, Waltham, Mass. USA) and the data was converted to density plots.

B1: fusion protein: 71 amino acid recombinant polypeptide: VIP, cathepsin cleavable linker SLLIARRMPNFN, BH3 domain of BID, His tag (SEQ ID NO: 10) (protein)
chain: MHSDAVFTDNYTRLRKQMAVKKYLNSILNGSSLLIARRMPNFNEDIIRNIARHLAQVGDSMDRLEHHHHHH
modifications: This amino acid sequence was artificially generated using naturally occurring mature human VIP peptide produced in E.coli as fusion protein
Q: What does the source list for B1?
A: availability of VPAC-1 receptors to anti VPAC-1 after pre-treatment ([1]; A549 cells pre-treated, then anti-VPAC-1 immunostaining): significant loss in the immunostained cell population; immunostaining with anti-BID after treatment of cells ([1]; A549 cells treated with fusion protein, anti-BID): localization of the protein on the cells; time of first cleavage at the linker [2]: around 30 minutes; IC50 [3]: > 30 µM; effect on mitochondrial membrane potential (A549 cells): decreasing the mitochondrial membrane potential
